The source of these data is the supplement of paper PMC10567573.

Sequences and labels used below:
B1: OR10K2 (parent)
chain: SLARLQQLLFVIFLLLYLFTLGTN
B2: ANKRD40 (parent)
chain: SLRENDFIEIELDRQELTYQELLR
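Further: lentivirally expressed fusions sorted by FACS into six bins by GFP to DsRed ratio, PSI derived from sequencing read proportions per bin multiplied by bin number.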

The variants in the first series derive from B1. Kind of series: protein stability index of a GFP-peptide fusion (GPS, HEK-293T) (PSI 1-6); higher = more stable. The conditions noted are these: c terminus: a fixed tail appended.
For the variant SLARLQQLLYVIFLLLYLFTLGTN [F10Y], the protein stability index amounted to 2.37.

As for SLARLQQLLGVIFLLLYLFTLGTN [F10G], the protein stability index is 3.07.

Turning to SLARLGQLLFVIFLLLYLFTLGTN [Q6G], the protein stability index was 2.56.

With SLARLHQLLFVIFLLLYLFTLGTN [Q6H], the protein stability index is 2.35.

SLARLWQLLFVIFLLLYLFTLGTN [Q6W]: the protein stability index amounted to 2.2.

For SLARLIQLLFVIFLLLYLFTLGTN [Q6I], the protein stability index amounted to 2.84.

Consider SLARRQQLLFVIFLLLYLFTLGTN [L5R], for which the protein stability index is 1.85.

As to SLARDQQLLFVIFLLLYLFTLGTN [L5D], the protein stability index came out at 3.05.

With SLARKQQLLFVIFLLLYLFTLGTN [L5K], the protein stability index is 2.85.

For SLARMQQLLFVIFLLLYLFTLGTN [L5M], the protein stability index is 1.41.

Consider SLARPQQLLFVIFLLLYLFTLGTN [L5P], for which the protein stability index was determined as 2.02.

SLARAQQLLFVIFLLLYLFTLGTN [L5A]: the protein stability index stood at 3.68.

Consider SLARLQQLLFMIFLLLYLFTLGTN [V11M], for which the protein stability index stood at 3.05.

For SLARLQQELFVIFLLLYLFTLGTN [L8E], the protein stability index came to 1.9.

SLARLQQLLFVIFLLLYLFTLGTF [N24F]: the protein stability index came to 2.87.

As for SLARLQQLLFVIFLLLYLFTLGTW [N24W], the protein stability index turned out to be 1.99.

For the variant SLLRLQQLLFVIFLLLYLFTLGTN [A3L], the protein stability index stood at 2.75.

For SLGRLQQLLFVIFLLLYLFTLGTN [A3G], the protein stability index worked out at 1.49.

As to SLARLQQLLFVIFLLEYLFTLGTN [L16E], the protein stability index came out at 3.61.

For SLARLQQLLFVIFLLLYLFMLGTN [T20M], the protein stability index stood at 1.29.

Take SLALLQQLLFVIFLLLYLFTLGTN [R4L]: the protein stability index turned out to be 3.28.

Regarding SLAFLQQLLFVIFLLLYLFTLGTN [R4F], the protein stability index was found to be 2.36.

In the case of SLARLQQLLFVIFLTLYLFTLGTN [L15T], the protein stability index was determined as 2.62.

As to SLARLQCLLFVIFLLLYLFTLGTN [Q7C], the protein stability index turned out to be 2.1.

In the case of SLARLQYLLFVIFLLLYLFTLGTN [Q7Y], the protein stability index stood at 1.66.

Take SLARLQMLLFVIFLLLYLFTLGTN [Q7M]: the protein stability index turned out to be 2.14.

As to SLARLQVLLFVIFLLLYLFTLGTN [Q7V], the protein stability index turned out to be 2.1.

Consider SLARLQLLLFVIFLLLYLFTLGTN [Q7L], for which the protein stability index worked out at 1.72.

As for SLARLQQLLFVIFLLLYLFTIGTN [L21I], the protein stability index came to 2.08.

Consider SGARLQQLLFVIFLLLYLFTLGTN [L2G], for which the protein stability index came to 1.4.

For the variant SRARLQQLLFVIFLLLYLFTLGTN [L2R], the protein stability index is 2.48.

As to SIARLQQLLFVIFLLLYLFTLGTN [L2I], the protein stability index was found to be 3.49.

On to SLARLQQLLFVHFLLLYLFTLGTN [I12H], for which the protein stability index is 2.02.

In the case of ELARLQQLLFVIFLLLYLFTLGTN [S1E], the protein stability index is 2.11.

For NLARLQQLLFVIFLLLYLFTLGTN [S1N], the protein stability index worked out at 2.38.

Another series covers variants of B2. The description is as above. The conditions noted are these: c terminus: a fixed tail appended.
For SVRENDFIEIELDRQELTYQELLR [L2V], the protein stability index was determined as 3.12.

Turning to SQRENDFIEIELDRQELTYQELLR [L2Q], the protein stability index amounted to 3.48.

Turning to STRENDFIEIELDRQELTYQELLR [L2T], the protein stability index came to 3.

On to SCRENDFIEIELDRQELTYQELLR [L2C], for which the protein stability index was determined as 2.99.

For the variant SSRENDFIEIELDRQELTYQELLR [L2S], the protein stability index was 3.2.

For the variant SHRENDFIEIELDRQELTYQELLR [L2H], the protein stability index came to 3.01.

SERENDFIEIELDRQELTYQELLR [L2E]: the protein stability index came to 2.93.

For SKRENDFIEIELDRQELTYQELLR [L2K], the protein stability index is 3.01.

On to SARENDFIEIELDRQELTYQELLR [L2A], for which the protein stability index is 3.91.

SFRENDFIEIELDRQELTYQELLR [L2F]: the protein stability index was 2.36.

With SYRENDFIEIELDRQELTYQELLR [L2Y], the protein stability index is 2.68.

On to SIRENDFIEIELDRQELTYQELLR [L2I], for which the protein stability index was found to be 2.66.

Turning to SPRENDFIEIELDRQELTYQELLR [L2P], the protein stability index turned out to be 3.49.

Take SDRENDFIEIELDRQELTYQELLR [L2D]: the protein stability index stood at 3.6.

As for SMRENDFIEIELDRQELTYQELLR [L2M], the protein stability index worked out at 3.09.

Regarding SRRENDFIEIELDRQELTYQELLR [L2R], the protein stability index came out at 2.8.

On to SNRENDFIEIELDRQELTYQELLR [L2N], for which the protein stability index came to 2.89.

Consider SGRENDFIEIELDRQELTYQELLR [L2G], for which the protein stability index is 3.02.

In the case of SWRENDFIEIELDRQELTYQELLR [L2W], the protein stability index was 2.73.

Take SLNENDFIEIELDRQELTYQELLR [R3N]: the protein stability index stood at 3.06.

Take SLFENDFIEIELDRQELTYQELLR [R3F]: the protein stability index was 2.37.

Turning to SLPENDFIEIELDRQELTYQELLR [R3P], the protein stability index is 3.52.

SLVENDFIEIELDRQELTYQELLR [R3V]: the protein stability index worked out at 2.44.

Turning to SLLENDFIEIELDRQELTYQELLR [R3L], the protein stability index was found to be 2.29.

In the case of SLHENDFIEIELDRQELTYQELLR [R3H], the protein stability index worked out at 3.08.

SLAENDFIEIELDRQELTYQELLR [R3A]: the protein stability index is 3.29.

As for SLKENDFIEIELDRQELTYQELLR [R3K], the protein stability index is 3.23.

With SLIENDFIEIELDRQELTYQELLR [R3I], the protein stability index was determined as 2.9.

With SLWENDFIEIELDRQELTYQELLR [R3W], the protein stability index worked out at 2.26.

SLMENDFIEIELDRQELTYQELLR [R3M]: the protein stability index was found to be 2.54.

As for SLQENDFIEIELDRQELTYQELLR [R3Q], the protein stability index turned out to be 2.95.

For the variant SLCENDFIEIELDRQELTYQELLR [R3C], the protein stability index stood at 3.14.

Take SLDENDFIEIELDRQELTYQELLR [R3D]: the protein stability index was 2.9.

For the variant SLTENDFIEIELDRQELTYQELLR [R3T], the protein stability index came out at 2.91.

Regarding SLEENDFIEIELDRQELTYQELLR [R3E], the protein stability index is 2.85.

With SLSENDFIEIELDRQELTYQELLR [R3S], the protein stability index was determined as 3.54.

Consider SLYENDFIEIELDRQELTYQELLR [R3Y], for which the protein stability index was found to be 2.65.

Consider SLGENDFIEIELDRQELTYQELLR [R3G], for which the protein stability index was found to be 3.26.

Turning to SLRCNDFIEIELDRQELTYQELLR [E4C], the protein stability index was 2.16.

For the variant SLRANDFIEIELDRQELTYQELLR [E4A], the protein stability index turned out to be 2.74.

Regarding RLRENDFIEIELDRQELTYQELLR [S1R], the protein stability index was 3.07.

Take MLRENDFIEIELDRQELTYQELLR [S1M]: the protein stability index was found to be 2.66.

As for TLRENDFIEIELDRQELTYQELLR [S1T], the protein stability index worked out at 3.38.

In the case of QLRENDFIEIELDRQELTYQELLR [S1Q], the protein stability index was 3.44.

Regarding WLRENDFIEIELDRQELTYQELLR [S1W], the protein stability index was determined as 2.26.

Consider PLRENDFIEIELDRQELTYQELLR [S1P], for which the protein stability index came out at 3.26.

Take NLRENDFIEIELDRQELTYQELLR [S1N]: the protein stability index stood at 3.31.

Regarding KLRENDFIEIELDRQELTYQELLR [S1K], the protein stability index came out at 3.23.

GLRENDFIEIELDRQELTYQELLR [S1G]: the protein stability index is 2.77.

For the variant FLRENDFIEIELDRQELTYQELLR [S1F], the protein stability index came out at 2.29.

For the variant ALRENDFIEIELDRQELTYQELLR [S1A], the protein stability index amounted to 2.82.

In the case of YLRENDFIEIELDRQELTYQELLR [S1Y], the protein stability index turned out to be 2.3.

As for LLRENDFIEIELDRQELTYQELLR [S1L], the protein stability index amounted to 2.84.

With VLRENDFIEIELDRQELTYQELLR [S1V], the protein stability index worked out at 3.17.

On to ILRENDFIEIELDRQELTYQELLR [S1I], for which the protein stability index stood at 2.34.

For the variant ELRENDFIEIELDRQELTYQELLR [S1E], the protein stability index was 3.41.

Consider DLRENDFIEIELDRQELTYQELLR [S1D], for which the protein stability index stood at 3.12.

For CLRENDFIEIELDRQELTYQELLR [S1C], the protein stability index is 3.07.

Regarding HLRENDFIEIELDRQELTYQELLR [S1H], the protein stability index is 3.26.
